Earlier results on two substances are cited in publication PMC9315744.

What all share (assay): MST
In data set [1] the target is Nsp8 (SARS-CoV-2) (UniProt P0DTD1).
Data set [2] has as its target Nsp7/Nsp8 complex (SARS-CoV-2) (UniProt P0DTD1).
Data set [3] has as its target MHV spike glycoprotein ECD (Murine hepatitis virus) (UniProt P11224).

CEACAM1a, sequence (P31809 35-428): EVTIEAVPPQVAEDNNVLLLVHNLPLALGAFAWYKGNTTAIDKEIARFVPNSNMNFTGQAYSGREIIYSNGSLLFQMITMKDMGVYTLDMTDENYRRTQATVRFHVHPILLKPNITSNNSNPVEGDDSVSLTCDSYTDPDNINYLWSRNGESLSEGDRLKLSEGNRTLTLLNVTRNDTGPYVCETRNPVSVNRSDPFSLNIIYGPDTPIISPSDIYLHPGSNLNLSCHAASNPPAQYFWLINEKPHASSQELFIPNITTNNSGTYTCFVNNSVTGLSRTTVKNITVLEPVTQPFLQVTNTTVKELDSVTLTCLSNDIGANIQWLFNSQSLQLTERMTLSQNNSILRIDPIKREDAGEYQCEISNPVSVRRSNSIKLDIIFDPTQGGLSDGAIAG
MHV spike glycoprotein ECD (Murine hepatitis virus), sequence (P11224 15-1231): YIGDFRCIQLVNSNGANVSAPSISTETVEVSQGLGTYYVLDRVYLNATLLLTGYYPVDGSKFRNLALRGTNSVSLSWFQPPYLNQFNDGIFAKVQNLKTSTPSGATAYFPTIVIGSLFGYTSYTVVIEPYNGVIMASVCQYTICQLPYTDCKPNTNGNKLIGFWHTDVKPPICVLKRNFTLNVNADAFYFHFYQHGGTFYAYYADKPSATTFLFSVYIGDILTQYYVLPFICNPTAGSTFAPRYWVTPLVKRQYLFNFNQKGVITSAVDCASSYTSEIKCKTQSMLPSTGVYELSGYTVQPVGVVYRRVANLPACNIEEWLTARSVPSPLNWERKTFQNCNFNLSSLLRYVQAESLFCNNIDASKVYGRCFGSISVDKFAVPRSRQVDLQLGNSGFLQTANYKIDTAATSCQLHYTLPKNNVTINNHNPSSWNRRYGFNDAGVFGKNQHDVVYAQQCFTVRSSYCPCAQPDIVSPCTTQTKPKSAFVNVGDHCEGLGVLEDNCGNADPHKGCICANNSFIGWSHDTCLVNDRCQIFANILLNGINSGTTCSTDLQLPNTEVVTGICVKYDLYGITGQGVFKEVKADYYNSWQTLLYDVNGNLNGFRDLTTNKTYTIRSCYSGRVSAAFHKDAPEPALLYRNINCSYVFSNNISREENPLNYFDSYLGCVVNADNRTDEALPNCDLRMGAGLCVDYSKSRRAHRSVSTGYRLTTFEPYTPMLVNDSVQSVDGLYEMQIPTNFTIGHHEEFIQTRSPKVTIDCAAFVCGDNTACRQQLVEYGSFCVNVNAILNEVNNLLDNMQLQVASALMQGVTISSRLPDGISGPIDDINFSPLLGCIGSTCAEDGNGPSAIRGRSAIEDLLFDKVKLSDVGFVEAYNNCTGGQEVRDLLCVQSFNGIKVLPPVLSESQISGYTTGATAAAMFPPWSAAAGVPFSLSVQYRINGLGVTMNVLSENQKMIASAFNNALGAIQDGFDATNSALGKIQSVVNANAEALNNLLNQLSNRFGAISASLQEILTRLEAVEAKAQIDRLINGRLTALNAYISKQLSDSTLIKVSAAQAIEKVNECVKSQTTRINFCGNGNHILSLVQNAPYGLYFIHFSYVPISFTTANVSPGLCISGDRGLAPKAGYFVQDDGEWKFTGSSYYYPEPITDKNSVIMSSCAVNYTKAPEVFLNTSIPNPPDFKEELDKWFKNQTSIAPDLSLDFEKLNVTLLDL

What is called Kd is the equilibrium constant for the complex coming apart. Consider Nsp15 (from UniProt P0DTD1), for which the Kd was 16.3 µM in data set [1] and 6.48 µM in data set [2].
CEACAM1a (from UniProt P31809): the Kd in data set [3] is 0.0485 µM.
